In patent US20100136007A1 (Five Prime, published 2010):

Target: T1, hCSF1R-ECD.506 (human, UniProt P07333 20-506)
T1 construct: also called hCSF1R.506; human CSF1R.506
Assay: SPR, Biacore
Procedure: The CSF1 and IL34 ligand binding affinity and kinetics of the hCSF1R.506-GS-Fc and hCSF1R.512-GS-Fc fusion proteins were determined using Biacore® X surface plasmon resonance (SPR) technology (Uppsala, Sweden). CSF1 and IL34 are the only two ligands known to interact with the CSF1R ECD. The CSF1 and IL34 binding experiments were carried out using methodology similar to that described in Lin et al., Science 320:807-811, (2008).
In order to compare the relative ligand binding affinity of hCSF1R.506 (SEQ ID NO:2) and hCSF1R.506-Fc (SEQ ID NO:6) proteins expressed in CHO cells to CSF1, a Biacore® assay was used.

T1 sequence (P07333 20-506 limits assumed): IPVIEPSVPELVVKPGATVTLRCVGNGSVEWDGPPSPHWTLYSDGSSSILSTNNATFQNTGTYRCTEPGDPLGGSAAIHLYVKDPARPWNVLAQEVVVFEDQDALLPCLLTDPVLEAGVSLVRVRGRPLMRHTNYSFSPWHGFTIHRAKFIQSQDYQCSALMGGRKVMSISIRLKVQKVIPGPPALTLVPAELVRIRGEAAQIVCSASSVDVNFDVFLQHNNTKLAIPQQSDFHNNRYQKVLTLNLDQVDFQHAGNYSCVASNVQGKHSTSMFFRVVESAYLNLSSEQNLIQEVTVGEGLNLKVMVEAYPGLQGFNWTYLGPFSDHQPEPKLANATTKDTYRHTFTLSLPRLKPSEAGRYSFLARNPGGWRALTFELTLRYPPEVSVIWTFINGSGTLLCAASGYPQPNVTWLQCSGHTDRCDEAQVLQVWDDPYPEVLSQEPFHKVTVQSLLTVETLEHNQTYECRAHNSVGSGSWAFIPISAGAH

B1: colony stimulating factor 1 ligand (CSF1) (ligand, UniProt P09603 33-190, looked up)
chain: EEVSEYCSHMIGSGHLQSLQRLIDSQMETSCQITFEFVDQEQLKDPVCYLKKAFLLVQDIMEDTMRFRDNTPNAIAIVQLQELSLRLKSCFTKDYEEHDKACVRTFYETPLQLLEKVKNVFNETKNLLDKDWNIFSKNCNNSFAECSSQDVVTKPDCN
notes: also called MCSF; MGC31930
  Kd: 28.9 nM
  koff: 0.000809 s⁻¹
  kon: 28000 M⁻¹ s⁻¹
